Article PMC4029271, “Oligomer-targeting with a conformational antibody fragment promotes toxicity in Aβ-expressing flies” (Acta Neuropathologica Communications, 2014)

How the values were obtained:
Aβ(1–40) fibrils = target: T1, Aβ(1–40) fibrils (Homo sapiens, UniProt P05067); test: far-Western, overlay or dot blot; spot blot: 1–20 μg of each Aβ species (oligomers/intermediates or fibrils) on nitrocellulose, blocked with 2% BSA in TBST; 4 μg/ml B10AP or KW1AP in TBST for 1 h, room temperature; NBT/BCIP; densitometry; conditions: both partners purified
T1 construct: β-amyloid peptide Aβ(1–40), the 40 amino acid isoform, cut product of the amyloid precursor protein; numbers count on: the Aβ peptide; Fibrillar assembly state; also called Aβ(1–40) amyloid fibrils; source: fibrils formed at 1 mg/ml in 50 mM sodium borate, pH 9.0, 5 days, room temperature

Aβ(1–42) fibrils = target: T2, Aβ(1–42) fibrils (Homo sapiens, UniProt P05067); test: as above; conditions: both partners purified
T2 construct: β-amyloid peptide Aβ(1–42), the 42 amino acid isoform, cut product of the amyloid precursor protein; numbers count on: the Aβ peptide; Fibrillar assembly state; also called Aβ(1–42) amyloid fibrils; source: synthetic peptide (Dr. Sven Rothemund, University Leipzig); fibrils formed at 1 mg/ml in 50 mM sodium borate, pH 9.0, 5 days, room temperature

Aβ(1–40) oligomers = target: T3, Aβ(1–40) oligomers (Homo sapiens, UniProt P05067); test: as above; conditions: both partners purified
T3 construct: β-amyloid peptide Aβ(1–40), the 40 amino acid isoform, cut product of the amyloid precursor protein; numbers count on: the Aβ peptide; Oligomeric assembly state; also called Aβ(1–40) intermediates; Aβ(1-40)-derived oligomers; source: oligomers prepared in 100% HFIP, diluted 10-fold with water, supernatant after 14,000 x g

[1] = target: T4, Aβ(1–40) expressed in Drosophila (KW1;Aβ40 flies) (Homo sapiens (expressed in Drosophila), UniProt P05067); test: co-IP; head homogenates of 20-day old KW1;Aβ40 flies incubated with blocked protein A magnetic beads without antibody (fly KW1 binds the beads directly); PBS + 0.025% TritonX-100, room temperature; elution with 50 mM glycine pH 2.8; WB with 6E10 (Aβ) and anti-myc (KW1); conditions: partners not purified
T4 construct: β-amyloid peptide Aβ(1–40); numbers count on: the Aβ peptide; Assembly state of the peptide in the fly homogenate is not defined; source: transgenic Drosophila melanogaster (Gal4-elav c155 driver, neuronal), in head homogenate of 20-day old flies

B1: B10AP (alkaline phosphatase coupled B10 antibody fragment) (VHH)
VHH: EVQLVESGGGLVQPGGSLRLSCTASGYTFSHRYHRWFRQAPGKEREIVAVISQSGMRTYYADSVKGRFTISRDNAKNTVYLQMNSLKPEDTAMYYCAAGTRKNVWTRQHPFDYWGQGTQVTVSS
notes: B10, phage display selected from a fully synthetic library of camelid heavy chain antibody fragments; crystal structure of B10 is PDB 3LN9; The introduction speaks of bivalent B10 in earlier work; also called AP coupled B10
Aβ(1–40) fibrils
  binding result: binds
Aβ(1–42) fibrils
  binding result: binds

B2: KW1AP (alkaline phosphatase coupled KW1 antibody fragment) (VHH)
VHH: EVQLVESGGGSVQPGGSLRLSCTASGYTFSQEFVIWFRQAPGKEREIVSGISLRKGWTYYADSVKGRFTISQDNAKNTVYLQMNNLKPEDTAMYYCAAAPTATHALYFDYWGQGTQVTVSS
notes: KW1, phage display selected from a fully synthetic library of camelid heavy chain antibody fragments; crystal structure of KW1 is PDB 3TPK; The introduction speaks of bivalent KW1 in earlier work; also called AP coupled KW1
Aβ(1–40) oligomers
  binding result: binds

B3: fly KW1 (myc-tagged KW1 antibody fragment expressed in Drosophila neurons) (VHH)
VHH: B2 VHH
notes: KW1 as in m1; crystal structure PDB 3TPK; Expressed with an N-terminal secretion signal peptide (SSP) from the Drosophila necrotic gene; Band at ~17 kDa on anti-myc Western blot; source: transgenic Drosophila melanogaster (Gal4-elav c155 driver, neuronal), in head homogenate; not shown: myc, C-terminal, kept
[1]
  binding result: binds
